Experimental data as given in patent US20250179196A1 (Janssen / Centocor, published 2025).

Tests used:
[1] = target: T1, human IL-23R expressed on the cell surface of stably transfected iLite and HEK cell lines (human, UniProt Q5VWK5 24-629); test: flow cytometry on human IL-23R HEK cells, Expt D (8-point, 96well)
T1 construct: whole, on cells; Same receptor on two transfected cell lines; the cell line is named under assay; also called human IL-23R iLite cells; human IL-23R HEK cells
T1 sequence (looked up): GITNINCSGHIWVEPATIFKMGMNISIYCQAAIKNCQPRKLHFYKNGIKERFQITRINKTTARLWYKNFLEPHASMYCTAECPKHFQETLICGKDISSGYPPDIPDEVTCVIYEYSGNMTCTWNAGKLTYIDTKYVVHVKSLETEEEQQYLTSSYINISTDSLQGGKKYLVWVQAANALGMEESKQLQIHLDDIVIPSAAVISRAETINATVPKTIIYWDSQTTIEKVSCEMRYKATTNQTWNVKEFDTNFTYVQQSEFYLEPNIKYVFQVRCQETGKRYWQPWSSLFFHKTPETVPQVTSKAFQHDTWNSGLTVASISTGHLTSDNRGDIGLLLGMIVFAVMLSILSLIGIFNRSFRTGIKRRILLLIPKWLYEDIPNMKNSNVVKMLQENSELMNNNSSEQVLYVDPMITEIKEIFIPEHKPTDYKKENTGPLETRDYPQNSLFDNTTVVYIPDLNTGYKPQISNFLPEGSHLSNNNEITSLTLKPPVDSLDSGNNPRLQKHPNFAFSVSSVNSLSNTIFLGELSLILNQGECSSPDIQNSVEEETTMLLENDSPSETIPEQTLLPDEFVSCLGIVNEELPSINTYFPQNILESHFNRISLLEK
Description: HEK-IL-23R cell concentration response mAb binding (8-point, 96-well assay). […] HEK-IL-23R and HEK-parental cells (12.5 μL of each, 120000 cells total) were plated in 2× replicate on 96-well V-bottom plates (Corning, Cat #3357) into 37° C. warmed Assay medium containing serially diluted IL-23R mAbs to a final volume of 150 μL. IL-23R mAbs were allowed to bind to cells for 30 minutes, at 37° C. […] Cells were next washed twice in ice-cold stain buffer, then resuspended in a final volume of 30 μL with Sytox Green viability dye (ThermoFisher, Cat #S7020). Plates were kept on ice until run for analysis on the iQue. All washes were performed by centrifugation (800 rcf, 3 minutes) followed by flick decantation to remove supernatants. Cell-binding to HEK-IL-23R cells was measured with FlowJo, by gating for single, viable cells and determining the geometric mean fluorescence intensity (MFI) for the 647 detection antibody. Geometric mean fluorescence intensities were plotted over log mAb concentrations fitted with a dose response curve with variable slope using GraphPad Prism.

[2] = target: T1, human IL-23R expressed on the cell …; test: flow cytometry on human IL-23R HEK cells, Expt E (11-point, 384well)
Description: HEK-IL-23R cell concentration response mAb binding (11-point, 384-well assay). […] IL-23R mAbs were allowed to bind to cells for 30 minutes, at 37° C. […] Cells were next washed twice in ice-cold stain buffer, then resuspended in a final volume of 10 μL with Sytox Green viability dye (ThermoFisher, Cat #S7020). Plates were kept on ice until run for analysis on the iQue. All washes were performed by centrifugation (800 rcf, 3 minutes) followed by automated aspiration to remove supernatants with plate washers. Cell-binding to HEK-IL-23R cells was measured with FlowJo, by gating for single, viable cells and determining the geometric mean fluorescence intensity (MFI) for the 647 detection antibody. Geometric mean fluorescence intensities were plotted over log mAb concentrations fitted with a dose response curve with variable slope using GraphPad Prism.

Binder | EC50 [1] | EC50 [2] | MFI (6.4 nM) [2]
I23RB180 (antibody, mouse IgG2a, kappa, V domains shown, immunization; mouse IgG2a/kappa) VH: QVTLKESGPGILQPSQTLSLTCSFSGFSLSTYGMGVGWIRQPSGKGLEWLANIWWNDSKYHNAALKSRLTISKDTSKNQVFLKIASVDTADTATYYCGRIDGYYECVDVWGTGTSVTVSS VL: DIQMTQSPASLSASVGETVTITCRASVNIHNYLAWYQQKQGKSPQLLVYNAKTLADGVPSRFSGSGSGTQYSLKINSLQPEDFGSYYCQHFWTTPYMYTFGAGTKLELKR | 27.6 nM | – | –
I23RB54 (antibody, mouse IgG2a, kappa, V domains shown, immunization; mouse IgG2a/kappa) VH: EVQLQQSGGGLVKPGGSLKLSCAASGFTFSSYAMSWVRQTPEKRLEWVAGISSGGSYIYYPDNVKGRFTISRDNARNTLYLQMSSLRSEDTAMYYCARKKSDYGAMDYWGQGTTLTVSS VL: DIQMTQSPKFLLVSAGDRVTITCKASQSVSNDVAWYQQKPGQSPRLLIYYASNRYTGVPDRFTGSGYGTDFTFTISTVQAEDLAVYFCQQDYSSLPTFGAGTKLEMKR | – | 35.2 nM | 63100 MFI
I23RB87 (antibody, mouse IgG2a, kappa, V domains shown, immunization; mouse IgG2a/kappa) VH: EFQLQQSGPELVKPGTSVKMSCKASGYTFTNYVMHWVKQKPGQGLEWIGYINPYDASPKYNEKFKGKAILTSDKSSSTAYMELSSLTSEDSAVYYCTRDAKLDYFDYWGQGTTLTVSS VL: DIVMTQTTSSLSASLGDRVTISCRASQDISNYLNWYQQKPDGTVKLLIYYTSRLHSGVPSRFSGSGSGTDFSLTISNLEQEDIATYFCQQGITLPWTFGAGTKLELKR | – | > 50 nM | 86100 MFI
I23RB91 (antibody, mouse IgG2a, kappa, V domains shown, immunization; mouse IgG2a/kappa) VH: EFQLQQFGPELLKPGASVKISCKASGYTFTDYIMHWVKQSHGKSLEWIGGISPNYGGTGYNGKFKDKATLTVDKSSSTAYMELRSLTSEDSAVYYCARFNNYYYFDYWGQGTTLTVSS VL: DIKMTQSPSSMYASLGERVTITCKASQDINSYLSWCQQKPGKSPKALIYRANSLVDGVPSRFSGSGSGQDYSLTISSLEYEDMGIYYCLQYDEFPYTFGGGTKLEMKR | 30.3 nM | – | –
I23RB317 (antibody, mouse IgG2a, kappa, V domains shown, phage display; human V, mouse IgG2a/kappa) VH: QVQLVQSGAEVKKPGSSVKVSCKASGGTFSSYAISWVRQAPGQGLEWMGGIIPIFGTANYAQKFQGRVTITADESTSTAYMELSSLRSEDTAVYYCARGNGVNYHSELDYWGQGTLVTVSS VL: EIVLTQSPATLSLSPGERATLSCRASQSVDSFLAWYQQKPGQAPRLLIYTASNRATGIPARFSGSGSGTDFTLTISSLEPEDFAVYYCQQGNSAPFTFGQGTKVEIKR | 31 nM | – | –
I23RB260 (antibody, mouse IgG2a, kappa, V domains shown, phage display; human V, mouse IgG2a/kappa) VH: QVQLVQSGAEVKKPGSSVKVSCKASGGTFSSYGISWVRQAPGQGLEWMGGIIPIFGTANYAQKFQGRVTITADESTSTAYMELSSLRSEDTAVYYCARDFGWSLWFDYWGQGTLVTVSS VL: not shown | > 50 nM | – | –
I23RB35 (antibody, mouse IgG2a, kappa, V domains shown, immunization; mouse IgG2a/kappa) VH: DVQLQESGPGLVKPSQSLSLTCSVTGYSITSGHNWNWIRQFPGNKLEWLGYISYDGSNNYDPSLKNRISITRDTSKNQFFLKLNSVTTEDTATYYCARGGGYFGNSYRVFASWGQGTTVTVSS VL: DIVLTQSPASLAVSLGQRATISCRASESVDSYGNSFMHWYQQKPGQPPKLLIYRASNLESEIPARFSGRGSGTDFTLTINPVEADDVATYYCQQSNADPYTFGGGTKLEIKR | 0.2 nM | – | –
I23RB78 (antibody, mouse IgG2a, kappa, V domains shown, immunization; mouse IgG2a/kappa) VH: EFQLQQSGGGLVKPGGSLKLSCAASGFTFSNYTMSWVRQTPEKRLKWVACISSGGGNTYYPDSVKGRFTISRDNARNTLYLQMSSLRSEDTAMYYCARRNYRRAMDYWGQGTSVTVSS VL: DIVMTQSPASLAVSLGQRATISCRASESVDSYGISFMHWYQQKPGQPPKLLIYRASNLESGIPARFSGSGSRTDFTLTINPVEADDVATYYCQQSNEDPWTFGAGTGLEIKR | – | 15.8 nM | 84200 MFI
I23RB102 (antibody, mouse IgG2a, kappa, V domains shown, immunization; mouse IgG2a/kappa) VH: QVQLQQPGAELVKPGASVKVSCKASGYTFTKYWINWMNQRPGQGLEWIGNIYPGSISTNYNEKFKSKVTLTVDISSSTAYMQLSSLTSDDSAVYYCARGDFYALDYWGQGTTLTVSS VL: DIQMTQSPASLSVSVGETVTITCRASENIYSHITWYQLKQGKSPQLLVYASTNLADDVPSRFSGSGSGTQYSLKINSLLSEDFGTYYCQHFWGTPWTFGGGTKLEMKR | – | 8.6 nM | 258000 MFI
I23RB69 (antibody, mouse IgG2a, kappa, V domains shown, immunization; mouse IgG2a/kappa) VH: EVQLQQSGAELVKPGASVKISCKASGYSFTGYNMNWVKQSHGKSLEWIGNINPFYDKTSYNQKFKGKATLTVDKASSTAYMQLNSLTSEDSAVYYCARQLGLKGFAYWGQGTLVTVSA VL: DIVMTQSHKFMSTSVGDRVSITCKASQDVSTAVAWYQQKPGQSPKLLIYSASYRYTGVPDRFTGSGSGTDFTFTISSVQAEDLAVYYCQQHYSTPWTFGGGTKLEMKR | 0.6 nM | – | –
I23RB67 (antibody, mouse IgG2a, kappa, V domains shown, immunization; mouse IgG2a/kappa) VH: EVQLQQSGAELVKPGASVKLSCKASGYTFTSYWINWVKQRPGQGLEWIGNIYPGSSSTNYNEKFKSKATLTVDTSSSTAYMQLSSLTSDDSAVYYCARSAYGNRLAMDYWGQGTTLTVSS VL: DVVMTQSHKFMSTSVGDRVSITCKASQDVSTAVAWYQQKPGQSPKLLIYSAFYRYTGVPDRFTGSGSGTDFTFTISSVQAEDLAVYYCQQHYSTPYTFGGGTKLELKR | – | 18 nM | 80900 MFI
I23RB321 (antibody, mouse IgG2a, kappa, V domains shown, phage display; human V, mouse IgG2a/kappa) VH: QVQLVQSGAEVKKPGSSVKVSCKASGGTFSSYGISWVRQAPGQGLEWMGWISAIFGTTNYAQKFQGRVTITADESTSTAYMELSSLRSEDTAVYYCARHWLQSFDYWGQGTLVTVSS VL: DIQMTQSPSSLSASVGDRVTITCRASQSIGGDLNWYQQKPGKAPKLLIYAASSLQSGVPSRFSGSGSGTDFTLTISSLQPEDFATYYCQQSYSTPLTFGQGTKVEIKR | 18.6 nM | – | –
I23RB264 (antibody, mouse IgG2a, kappa, V domains shown, phage display; human V, mouse IgG2a/kappa) VH: QVQLVQSGAEVKKPGSSVKVSCKASGGTFSSYAISWVRQAPGQGLEWMGGIIPIFGTANYAQKFQGRVTITADESTSTAYMELSSLRSEDTAVYYCARRSSPGFDYWGQGTLVTVSS VL: DIQMTQSPSSLSASVGDRVTITCRASQSIDNDLNWYQQKPGKAPKLLIYNASSLQSGVPSRFSGSGSGTDFTLTISSLQPEDFATYYCQQPYSIPLTFGQGTKVEIKR | > 50 nM | – | –
I23RB261 (antibody, mouse IgG2a, kappa, V domains shown, phage display; human V, mouse IgG2a/kappa) VH: QVQLVQSGAEVKKPGSSVKVSCKASGGTFSSYAISWVRQAPGQGLEWMGWISPYFGTANYAQKFQGRVTITADESTSTAYMELSSLRSEDTAVYYCARMYRQGFDYWGQGTLVTVSS VL: DIQMTQSPSSLSASVGDRVTITCRASQSINDDLNWYQQKPGKAPKLLIYAASSLQSGVPSRFSGSGSGTDFTLTISSLQPEDFATYYCQQSYSTPLTFGQGTKVEIKR | 9.2 nM | – | –
I23RB313 (antibody, mouse IgG2a, kappa, V domains shown, phage display; human V, mouse IgG2a/kappa) VH: QVQLVQSGAEVKKPGSSVKVSCKASGGTFSSYGISWVRQAPGQGLEWMGWISAIFGTTNYAQKFQGRVTITADESTSTAYMELSSLRSEDTAVYYCARGTVPGFDYWGQGTLVTVSS VL: DIQMTQSPSSLSASVGDRVTITCRASQSIGEDLNWYQQKPGKAPKLLIYAASSLQSGVPSRFSGSGSGTDFTLTISSLQPEDFATYYCQQSYSTPLTFGQGTKVEIKR | > 50 nM | – | –
I23RB319 (antibody, mouse IgG2a, kappa, V domains shown, phage display; human V, mouse IgG2a/kappa) VH: QVQLVQSGAEVKKPGSSVKVSCKASGGTFSSYGISWVRQAPGQGLEWMGWISAIFGTTNYAQKFQGRVTITADESTSTAYMELSSLRSEDTALYYCARPLKQAFDYWGQGTLVTVSS VL: DIQMTQSPSSLSASVGDRVTITCRASQSITDDLNWYQQKPGKAPKLLIYAASSLQSGVPSRFSGSGSGTDFTLTISSLQPEDFATYYCQQSYSTPLTFGQGTKVEIKR | 8.7 nM | – | –
I23RB267 (antibody, mouse IgG2a, kappa, V domains shown, phage display; human V, mouse IgG2a/kappa) VH: EVQLVQSGAEVKKPGESLKISCKGSGYSFTSYWIGWVRQMPGKGLEWMGIIYPGDSDTRYSPSFQGQVTISADKSISTAYLQWSSLKASDTAMYYCARVWYSSWDLDYWGQGTLVTVSS VL: not shown | 9.4 nM | – | –
